Source: article PMC3168688 (American journal of medical genetics. Part B, …, 2011)

Biological target: T1, c-Myc-tagged SLC9A9 C-terminal with both mutations (V512G and K534R) (rat, UniProt D4A7H1 494-644, V512G | K534R)
T1 sequence (looked up): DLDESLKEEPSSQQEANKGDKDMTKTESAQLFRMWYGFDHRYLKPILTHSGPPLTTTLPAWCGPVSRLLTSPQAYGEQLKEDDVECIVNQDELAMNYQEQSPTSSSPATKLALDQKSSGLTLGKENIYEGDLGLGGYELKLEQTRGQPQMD
Test: co-IP

B1: Flag-tagged calcineurin homologous protein (CHP) (natural protein, rat, UniProt P61023 1-195, looked up)
chain: MGSRASTLLRDEELEEIKKETGFSHSQITRLYSRFTSLDKGENGTLSREDFQRIPELAINPLGDRIINAFFSEGEDQVNFRGFMRTLAHFRPIEDNEKSKDVNGPEPLNSRSNKLHFAFRLYDLDKDDKISRDELLQVLRMMVGVNISDEQLGSIADRTIQEADQDGDSAISFTEFVKVLEKVDVEQKMSIRFLH
fold change of CHP co-precipitated against wild-type SLC9A9 C-terminal: ~2 fold
